Measurements: patent US20120270914A1, “SPLIT-LUCIFERASE C-MYC SENSOR AND USES THEREOF” (THE BOARD OF TRUSTEES OF THE LELAND STANFORD JUNIOR …, priority 2011, published 2012)

Target: NFL-c-Myc T581 (firefly) [luciferase: P08659]
Assay: cell-based or functional assay

Chain of NFL-c-Myc T581 (firefly) [luciferase: P08659] (P08659 other isoform, or with tags, fused parts or gaps): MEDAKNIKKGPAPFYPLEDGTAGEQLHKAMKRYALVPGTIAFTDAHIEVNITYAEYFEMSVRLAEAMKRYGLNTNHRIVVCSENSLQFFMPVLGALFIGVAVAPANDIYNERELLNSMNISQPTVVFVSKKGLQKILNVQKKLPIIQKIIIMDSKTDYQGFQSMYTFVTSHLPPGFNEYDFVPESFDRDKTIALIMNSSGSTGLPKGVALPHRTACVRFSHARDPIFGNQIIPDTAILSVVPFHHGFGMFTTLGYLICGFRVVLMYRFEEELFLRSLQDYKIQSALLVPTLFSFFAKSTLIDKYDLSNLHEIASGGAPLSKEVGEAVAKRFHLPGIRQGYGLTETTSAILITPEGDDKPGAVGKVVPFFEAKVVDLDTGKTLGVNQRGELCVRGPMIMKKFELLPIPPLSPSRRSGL

- complemented FL activity of SKBR3 xenografts in nude mice, normalized to hRL activity, compared with pcDNA3.1(+) vector: 4.7 fold
B1: GSK 35-433-CFL, P49841 35-420 (protein, not shown: large carriers)
chain: SKVTTVVATPGQGPDRPQEVSYTDTKVIGNGSFGVVYQAKLCDSGELVAIKKVLQDKRFKNRELQIMRKLDHCNIVRLRYFFYSSGEKKDEVYLNLVLDYVPETVYRVARHYSRAKQTLPVIYVKLYMYQLFRSLAYIHSFGICHRDIKPQNLLLDPDTAVLKLCDFGSAKQLVRGEPNVSYICSRYYRAPELIFGATDYTSSIDVWSAGCVLAELLLGQPIFPGDSGVDQLVEIIKVLGTPTREQIREMNPNYTEFKFPQIKAHPWTKDSSGTGHFTSGVRVFRPRTPPEAIALCSRLLEYTPTARLTPLEACAHSFFDELRDPNVKLPNGRDTPALFNFTTQELSSNPPLATILIPPHARIQAAASTPTNATAASDANTGDRGQTNNAASASASNST
modifications: here or on the partner: phosphorylation partially abolished (T58 cannot be phosphorylated)
